Measurements: doi:10.1101/2021.07.07.451531 (bioRxiv, 2021)

Columns and labels:
biotinylated iC3b = assay: SPR
[1] = target: αM subunit of the αMβ2 headpiece (human, UniProt P11215); assay: crystal structure
[2] = target: recombinant human αI domain of αMβ2 (human, UniProt P11215); assay: SEC
Sequence of recombinant human αI domain of αMβ2 (P11215 148-336): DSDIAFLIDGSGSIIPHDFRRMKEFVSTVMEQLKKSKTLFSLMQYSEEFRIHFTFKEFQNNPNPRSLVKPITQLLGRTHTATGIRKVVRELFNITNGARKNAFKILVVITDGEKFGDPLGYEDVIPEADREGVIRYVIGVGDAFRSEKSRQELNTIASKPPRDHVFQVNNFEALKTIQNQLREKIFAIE

Sequence of αM subunit of the αMβ2 headpiece (P11215 17-770): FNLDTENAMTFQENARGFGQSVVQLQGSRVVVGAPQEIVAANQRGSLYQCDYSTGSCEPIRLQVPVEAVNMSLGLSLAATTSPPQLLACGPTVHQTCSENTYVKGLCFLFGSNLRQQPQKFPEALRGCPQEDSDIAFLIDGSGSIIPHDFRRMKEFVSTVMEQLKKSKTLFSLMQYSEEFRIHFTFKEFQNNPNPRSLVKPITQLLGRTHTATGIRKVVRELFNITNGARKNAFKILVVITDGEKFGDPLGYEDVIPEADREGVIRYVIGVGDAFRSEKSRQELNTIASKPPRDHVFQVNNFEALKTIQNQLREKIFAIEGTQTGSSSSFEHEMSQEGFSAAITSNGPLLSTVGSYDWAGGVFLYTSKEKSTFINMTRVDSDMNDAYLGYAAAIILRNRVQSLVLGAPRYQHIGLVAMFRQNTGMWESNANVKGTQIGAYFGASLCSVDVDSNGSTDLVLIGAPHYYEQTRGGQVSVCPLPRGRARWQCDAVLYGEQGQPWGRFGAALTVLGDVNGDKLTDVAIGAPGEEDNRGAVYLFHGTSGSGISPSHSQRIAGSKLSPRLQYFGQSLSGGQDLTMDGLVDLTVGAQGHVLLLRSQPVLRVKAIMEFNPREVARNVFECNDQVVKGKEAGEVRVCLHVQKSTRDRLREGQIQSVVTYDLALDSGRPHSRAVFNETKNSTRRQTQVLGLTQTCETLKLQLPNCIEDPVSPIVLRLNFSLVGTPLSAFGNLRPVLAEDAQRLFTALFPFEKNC

Work on “αMβ2 headpiece (from UniProt P05107 23-482) (complex)” yielded a Kd (biotinylated iC3b) of 30 nM.

B1: hCD11bNb1 (VHH)
VHH: QVQLVETGGGLVQAGGSLRLSCAASGNINSFNAMGWFRQAPGKQRELVAAITFGGRTNYADSVKGRFTISRDNTKGSVYLQMNSLKPEDTAVYYCAASENNLLTGVWHYWGRGTQVTVSS
B1: binds [1]; binds [2].
